In US20140017242A1, “ANTI-BRADYKININ B2 RECEPTOR (BKB2R) MONOCLONAL ANTIBODY” (Diamedica, Inc., priority 2010, published 2014):
Where no end group is shown, it is not given here.

T1: human BKB2R-derived epitope peptide (SEQ ID NO:73), PEG-biotin (human, also: PEG-biotin, site not given here)
T1 construct: also called immunogenic human BKB2R peptide fragment
T1 peptide: KEYSDEGHNVTAC


Tests used:
[1] = biological target: T2, human BKB2R-derived epitope peptide, SE ID NO:73 (Homo sapiens, UniProt P30411); assay: ForteBio Octet binding kinetics to the BKB2R epitope peptide
T2 construct: purchased Biosyn, Lewisville, Tex
Procedure: Proteins corresponding to all combinations of humanized or chimeric (5F12G1 VH and VL on human IgG2 backbone) antibodies were tested for binding to the human BKB2R-derived epitope peptide, SE ID NO:73.
A ForteBio (Menlo Park, Calif., USA) Octet® platform was used to analyze the binding affinities and binding characteristics of the humanized monoclonal antibodies to the peptide epitope (SEQ ID NO:73) and compared to the original mouse monoclonal 5F12G1. This platform employed label-free technology for measuring biomolecular interactions by optical analysis of the interference pattern of white light reflected from two surfaces: a layer of immobilized protein on the biosensor tip, and an internal reference layer. Any change in the number of molecules bound to the biosensor tip caused a shift in the interference pattern that was measured in real-time. Binding specificity, and rates of association and dissociation were monitored.
(§1) For the Octet study, antibodies were analyzed by kinetic titration of the antibodies. Antibodies were prepared in kinetic buffer (0.001 M phosphate buffered saline (NaCl 0.0138 M; KCl-0.00027 M); pH 7.4, at 25° C., 0.1 mg/ml BSA, 0.002% Tween and 0.005% Sodium Azide) followed by 1:2 serial dilutions.
(§2) Sensor Prep: Streptavidin biosensors (FortéBio Inc, Menlo Park, Calif.) were coated by incubation in a solution containing a peptide ([…]-PEG-biotin) (Biosyn, Lewisville, Tex.) at 50 μg/ml (300 seconds/1000 rpm shaking). 96 well half-volume plates were used for testing. 90 μl of sample was plated per well. Sensors were allowed to equilibrate to baseline in kinetic buffer (60 seconds/1000 rpm). The sensors were then placed into the various antibody dilutions to allow binding (association) to the probe for 500 seconds/1000 rpm, and measurements were taken. The sensors were then moved into kinetic buffer without antibody for dissociation (500 seconds/1000 rpm), and measurements were taken. Octet system software calculated kinetic constants for on rate/off rate/affinity.
[…] […] Each concentration was tested twice. The HC and LC represented the mouse original 5F12G1 VH and VL sequences.

[2] = biological target: T1, human BKB2R-derived epitope peptide …; assay: BLI (Octet), peptide-PEG-biotin on streptavidin sensor, antibody 500 nM
Procedure: as §1, §2
(§3) For test humanized monoclonal antibodies, the highest concentration used was 500 nM followed by 1:2 dilutions. Each concentration was tested twice. The HC and LC represented the mouse original 5F12G1 VH and VL sequences.

[3] = biological target: T1, human BKB2R-derived epitope peptide …; assay: BLI (Octet), peptide-PEG-biotin on streptavidin sensor, antibody 250 nM
Procedure: as §1, §2, §3

| Kd [2] | Max Response [2] | koff [2] | kon [2] | Kd [3] | Max Response [3] | koff [3] | kon [3] | Molecule | kdis ([1]; Conc. 500 nM) | kon ([1]; Conc. 500 nM) | kdis ([1]; Conc. 250 nM) | kon ([1]; Conc. 250 nM) |
| --- | --- | --- | --- | --- | --- | --- | --- | --- | --- | --- | --- | --- |
| – | – | – | – | – | – | – | – | H39/L38: humanized anti-BKB2R mAb, heavy chain H39 (SEQ ID NO:7), light chain L38 (SEQ ID NO:11) (antibody, V domains shown, Humanized H39 Heavy Chain Variable Region VH; Humanized L38 Light Chain Variable Region VL) VH: EVKLVESGGGLVQPGGSLRLSCAVSGFTFSDYWMDWVRQAPGKGLEWVAEIRLKSDNYATHYAASVKGRFTISRDDSKSRLYLQMNSLKTEDTAVYYCTRDYYAMEYWGQGTTVTVSS VL: DIVMTQTPLSLPVTSGEPASISCRSSQTIVHSNGKTYLDWYLQKPGQSPQLLIYKVSNRASGVPDRFSGSGSGTDFTLKISRVEAEDVGVYYCFQASHVPYTFGGGTKVEIK | 4.9 s⁻¹ | 6.44e+06 M⁻¹ s⁻¹ | – | – |
| – | – | – | – | – | – | – | – | H39/L39: humanized anti-BKB2R mAb, heavy chain H39 (SEQ ID NO:7), light chain L39 (SEQ ID NO:12) (antibody, V domains shown, Humanized H39 Heavy Chain Variable Region VH; Humanized L39 Light Chain Region VL) VH: EVKLVESGGGLVQPGGSLRLSCAVSGFTFSDYWMDWVRQAPGKGLEWVAEIRLKSDNYATHYAASVKGRFTISRDDSKSRLYLQMNSLKTEDTAVYYCTRDYYAMEYWGQGTTVTVSS VL: DVVMTQTPLSLSVTPGQPASISCKSSQTIVHSNGKTYLEWYLQKPGQSPQLLIYKVSNRFSGVPDRFSGSGSGTDFTLKISRVEAEDVGVYYCFQASHVPYTFGQGTKLEIK | 1.26 s⁻¹ | 729000 M⁻¹ s⁻¹ | – | – |
| 403 nM | 0.161 | 0.976 s⁻¹ | 2.43e+06 M⁻¹ s⁻¹ | 2050 nM | 0.174 | 0.719 s⁻¹ | 350000 M⁻¹ s⁻¹ | humanized anti-BKB2R antibody L1/H2 (antibody, human IgG2, kappa, V domains shown) VH: EVQLVESGGGLVQPGGSLRLSCVASGFTFSDYWMSWVRQAPGKGLEWVAEIRLKSDNYATHYAESVKGRFTISRDDAKNSLYLQMNSLRAEDTAVYYCTRDYYAMEYWGQGTLVTVSS VL: DIVMTQSPLSLPVTPGEPASISCRSSQTIVHSNGKTYLEWYLQKPGQSPQLLIYKVSNRFSGVPDRFSGSGSGTDFTLKISRVEAEDVGVYYCFQASHVPYTFGQGTKLEIKR | – | – | – | – |
| – | – | – | – | – | – | – | – | L2/H2: humanized anti-BKB2R mAb, light chain L2 (SEQ ID NO:9), heavy chain H2 (SEQ ID NO:4) (antibody, V domains shown, Humanized H2 Heavy Chain Variable Region VH; Humanized L2 Light Chain Variable Region VL) VH: EVQLVESGGGLVQPGGSLRLSCVASGFTFSDYWMSWVRQAPGKGLEWVAEIRLKSDNYATHYAESVKGRFTISRDDAKNSLYLQMNSLRAEDTAVYYCTRDYYAMEYWGQGTLVTVSS VL: DIVMTQSPLSLPVTPGEPASISCRSSQTIVHSNGKTYLEWYLQKPGQSPQLLIYKVSNRFSGVPDRFSGSGSGTEFTLKISRVEAEDVGVYYCFQASHVPYTFGQGTKLEIK | 0.0223 s⁻¹ | 992000 M⁻¹ s⁻¹ | 0.0359 s⁻¹ | 1.76e+06 M⁻¹ s⁻¹ |
| – | – | – | – | – | – | – | – | H37/L37: humanized anti-BKB2R mAb, heavy chain H37 (SEQ ID NO:5), light chain L37 (SEQ ID NO:10) (antibody, V domains shown, Humanized H37 Heavy Chain Variable Region VH; Humanized L37 Light Chain Variable Region VL) VH: EVQLVESGGGLVQPGGSLRLSCAASGFTFSDYWMDWVRQAPGKGLEWVGEIRLKSDNYATHYAASVKGRFTISRDDSKNSLYLQMNSLKTEDTAVYYCTRDYYAMEYWGQGTTVTVSS VL: DIVMTQTPLSLSVTPGQPASISCKSSQTIVHSNGKTYLYWYLQKPGQSPQLLIYKVSSRFSGVPDRFSGSGSGTDFTLKISRVEAEDVGVYYCFQASHVPYTFGQGTKLEIK | 1.18 s⁻¹ | 1.55e+06 M⁻¹ s⁻¹ | – | – |
| – | – | – | – | – | – | – | – | H37/L39: humanized anti-BKB2R mAb, heavy chain H37 (SEQ ID NO:5), light chain L39 (SEQ ID NO:12) (antibody, V domains shown, Humanized H37 Heavy Chain Variable Region VH; Humanized L39 Light Chain Region VL) VH: EVQLVESGGGLVQPGGSLRLSCAASGFTFSDYWMDWVRQAPGKGLEWVGEIRLKSDNYATHYAASVKGRFTISRDDSKNSLYLQMNSLKTEDTAVYYCTRDYYAMEYWGQGTTVTVSS VL: DVVMTQTPLSLSVTPGQPASISCKSSQTIVHSNGKTYLEWYLQKPGQSPQLLIYKVSNRFSGVPDRFSGSGSGTDFTLKISRVEAEDVGVYYCFQASHVPYTFGQGTKLEIK | 1.98 s⁻¹ | 1.11e+06 M⁻¹ s⁻¹ | – | – |
| 3980 nM | 0.194 | 2.16 s⁻¹ | 543000 M⁻¹ s⁻¹ | 3040 nM | 0.148 | 0.728 s⁻¹ | 239000 M⁻¹ s⁻¹ | chimeric/humanized anti-BKB2R antibody L1/HC (antibody, human IgG2, V domains shown, not shown: human IgG2 constant region) VH: EVKLEESGGGLVQPGGSMKLSCVVSGFTFSDYWMSWVRHSPEMGLEWVAEIRLKSDNYATHYAESVKGRFTISRDDSKSRLYLQINSLRGEDTGIYYCTRDYYAMEYWGQGTSVTVSS VL: DIVMTQSPLSLPVTPGEPASISCRSSQTIVHSNGKTYLEWYLQKPGQSPQLLIYKVSNRFSGVPDRFSGSGSGTDFTLKISRVEAEDVGVYYCFQASHVPYTFGQGTKLEIKR | – | – | – | – |
| – | – | – | – | – | – | – | – | H37/L38: humanized anti-BKB2R mAb, heavy chain H37 (SEQ ID NO:5), light chain L38 (SEQ ID NO:11) (antibody, V domains shown, Humanized H37 Heavy Chain Variable Region VH; Humanized L38 Light Chain Variable Region VL) VH: EVQLVESGGGLVQPGGSLRLSCAASGFTFSDYWMDWVRQAPGKGLEWVGEIRLKSDNYATHYAASVKGRFTISRDDSKNSLYLQMNSLKTEDTAVYYCTRDYYAMEYWGQGTTVTVSS VL: DIVMTQTPLSLPVTSGEPASISCRSSQTIVHSNGKTYLDWYLQKPGQSPQLLIYKVSNRASGVPDRFSGSGSGTDFTLKISRVEAEDVGVYYCFQASHVPYTFGGGTKVEIK | 2.08 s⁻¹ | 9.47e+06 M⁻¹ s⁻¹ | – | – |
| – | – | – | – | – | – | – | – | H38/L37: humanized anti-BKB2R mAb, heavy chain H38 (SEQ ID NO:6), light chain L37 (SEQ ID NO:10) (antibody, V domains shown, Humanized H38 Heavy Chain Variable Region VH; Humanized L37 Light Chain Variable Region VL) VH: EVQLLESGGGLVQPGGSLKLSCAVSGFTFSDYWMSWVRQAPGKGLEWVSEIRLKSDNYATHYADSVKGRFTISRDDSKNTLYLQMNSLRAEDTAVYYCTRDYYAMEYWGQGTLVTVSS VL: DIVMTQTPLSLSVTPGQPASISCKSSQTIVHSNGKTYLYWYLQKPGQSPQLLIYKVSSRFSGVPDRFSGSGSGTDFTLKISRVEAEDVGVYYCFQASHVPYTFGQGTKLEIK | 29.4 s⁻¹ | 9.44e+06 M⁻¹ s⁻¹ | – | – |
| 22.5 nM | 0.171 | 0.0223 s⁻¹ | 992000 M⁻¹ s⁻¹ | 20.4 nM | 0.171 | 0.0359 s⁻¹ | 1.76e+06 M⁻¹ s⁻¹ | humanized anti-BKB2R antibody L2/H2 (antibody, human IgG2, kappa, V domains shown, also called H2/L2) VH: EVQLVESGGGLVQPGGSLRLSCVASGFTFSDYWMSWVRQAPGKGLEWVAEIRLKSDNYATHYAESVKGRFTISRDDAKNSLYLQMNSLRAEDTAVYYCTRDYYAMEYWGQGTLVTVSS VL: DIVMTQSPLSLPVTPGEPASISCRSSQTIVHSNGKTYLEWYLQKPGQSPQLLIYKVSNRFSGVPDRFSGSGSGTEFTLKISRVEAEDVGVYYCFQASHVPYTFGQGTKLEIKR | – | – | – | – |
| 4.19 nM | 0.172 | 0.00507 s⁻¹ | 1.21e+06 M⁻¹ s⁻¹ | 20.3 nM | 0.18 | 0.00438 s⁻¹ | 216000 M⁻¹ s⁻¹ | humanized anti-BKB2R antibody L2/H1 (antibody, human IgG2, kappa, V domains shown) VH: EVQLVESGGGLVQPGGSLRLSCAASGFTFSDYWMSWVRQAPGKGLEWVAEIRLKSDNYATHYAESVKGRFTISRDNAKNSLYLQMNSLRAEDTAVYYCTRDYYAMEYWGQGTLVTVSS VL: DIVMTQSPLSLPVTPGEPASISCRSSQTIVHSNGKTYLEWYLQKPGQSPQLLIYKVSNRFSGVPDRFSGSGSGTEFTLKISRVEAEDVGVYYCFQASHVPYTFGQGTKLEIKR | – | – | – | – |
